The test addresses recombinant VE-cadherin-Fc (UniProt P33151). As to the kind of experiment: atomic force microscopy.

Regarding “recombinant VE-cadherin-Fc (from UniProt P33151) (Fc fusion)”, the binding activity (binding probability by AFM) was determined as 61%.

For the origin of these results see paper PMC10563049.
